Target: T1, G9a and GLP (Homo sapiens, UniProt Q96KQ7+Q9H9B1)
T1 construct: endogenous in cells; host or cells: HEK 293T
T1 sequence (Q96KQ7 2-1210 limits assumed): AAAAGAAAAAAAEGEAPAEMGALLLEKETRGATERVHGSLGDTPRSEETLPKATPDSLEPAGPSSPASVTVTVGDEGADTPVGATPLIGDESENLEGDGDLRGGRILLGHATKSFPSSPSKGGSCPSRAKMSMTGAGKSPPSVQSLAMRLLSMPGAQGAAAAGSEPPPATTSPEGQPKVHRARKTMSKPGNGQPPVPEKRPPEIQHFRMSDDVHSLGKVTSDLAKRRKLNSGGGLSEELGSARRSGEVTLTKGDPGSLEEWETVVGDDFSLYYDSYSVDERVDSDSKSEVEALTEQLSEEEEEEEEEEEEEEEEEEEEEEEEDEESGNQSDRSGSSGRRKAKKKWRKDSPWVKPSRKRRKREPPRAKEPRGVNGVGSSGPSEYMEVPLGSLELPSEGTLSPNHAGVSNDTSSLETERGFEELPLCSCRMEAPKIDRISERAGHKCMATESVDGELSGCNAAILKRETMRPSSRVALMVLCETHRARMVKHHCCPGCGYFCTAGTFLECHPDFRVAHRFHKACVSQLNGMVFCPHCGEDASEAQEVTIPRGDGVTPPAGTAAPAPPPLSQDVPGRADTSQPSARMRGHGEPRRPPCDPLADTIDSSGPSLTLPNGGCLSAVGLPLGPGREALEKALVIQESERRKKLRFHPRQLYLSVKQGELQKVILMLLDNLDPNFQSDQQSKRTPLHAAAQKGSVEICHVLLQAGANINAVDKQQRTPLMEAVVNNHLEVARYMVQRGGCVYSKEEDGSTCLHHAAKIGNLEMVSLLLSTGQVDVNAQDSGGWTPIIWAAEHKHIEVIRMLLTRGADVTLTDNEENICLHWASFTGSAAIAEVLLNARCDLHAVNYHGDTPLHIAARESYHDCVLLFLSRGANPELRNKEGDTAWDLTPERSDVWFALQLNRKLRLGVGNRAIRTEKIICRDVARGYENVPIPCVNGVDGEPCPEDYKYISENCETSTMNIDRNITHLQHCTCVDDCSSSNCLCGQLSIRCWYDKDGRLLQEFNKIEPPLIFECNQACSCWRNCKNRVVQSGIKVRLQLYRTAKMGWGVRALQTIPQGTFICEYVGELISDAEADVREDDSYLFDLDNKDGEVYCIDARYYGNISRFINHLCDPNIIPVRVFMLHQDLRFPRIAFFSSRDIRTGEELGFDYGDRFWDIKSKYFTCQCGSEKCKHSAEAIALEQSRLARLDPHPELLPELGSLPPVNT
T1 sequence (Q9H9B1 2-1298 limits assumed): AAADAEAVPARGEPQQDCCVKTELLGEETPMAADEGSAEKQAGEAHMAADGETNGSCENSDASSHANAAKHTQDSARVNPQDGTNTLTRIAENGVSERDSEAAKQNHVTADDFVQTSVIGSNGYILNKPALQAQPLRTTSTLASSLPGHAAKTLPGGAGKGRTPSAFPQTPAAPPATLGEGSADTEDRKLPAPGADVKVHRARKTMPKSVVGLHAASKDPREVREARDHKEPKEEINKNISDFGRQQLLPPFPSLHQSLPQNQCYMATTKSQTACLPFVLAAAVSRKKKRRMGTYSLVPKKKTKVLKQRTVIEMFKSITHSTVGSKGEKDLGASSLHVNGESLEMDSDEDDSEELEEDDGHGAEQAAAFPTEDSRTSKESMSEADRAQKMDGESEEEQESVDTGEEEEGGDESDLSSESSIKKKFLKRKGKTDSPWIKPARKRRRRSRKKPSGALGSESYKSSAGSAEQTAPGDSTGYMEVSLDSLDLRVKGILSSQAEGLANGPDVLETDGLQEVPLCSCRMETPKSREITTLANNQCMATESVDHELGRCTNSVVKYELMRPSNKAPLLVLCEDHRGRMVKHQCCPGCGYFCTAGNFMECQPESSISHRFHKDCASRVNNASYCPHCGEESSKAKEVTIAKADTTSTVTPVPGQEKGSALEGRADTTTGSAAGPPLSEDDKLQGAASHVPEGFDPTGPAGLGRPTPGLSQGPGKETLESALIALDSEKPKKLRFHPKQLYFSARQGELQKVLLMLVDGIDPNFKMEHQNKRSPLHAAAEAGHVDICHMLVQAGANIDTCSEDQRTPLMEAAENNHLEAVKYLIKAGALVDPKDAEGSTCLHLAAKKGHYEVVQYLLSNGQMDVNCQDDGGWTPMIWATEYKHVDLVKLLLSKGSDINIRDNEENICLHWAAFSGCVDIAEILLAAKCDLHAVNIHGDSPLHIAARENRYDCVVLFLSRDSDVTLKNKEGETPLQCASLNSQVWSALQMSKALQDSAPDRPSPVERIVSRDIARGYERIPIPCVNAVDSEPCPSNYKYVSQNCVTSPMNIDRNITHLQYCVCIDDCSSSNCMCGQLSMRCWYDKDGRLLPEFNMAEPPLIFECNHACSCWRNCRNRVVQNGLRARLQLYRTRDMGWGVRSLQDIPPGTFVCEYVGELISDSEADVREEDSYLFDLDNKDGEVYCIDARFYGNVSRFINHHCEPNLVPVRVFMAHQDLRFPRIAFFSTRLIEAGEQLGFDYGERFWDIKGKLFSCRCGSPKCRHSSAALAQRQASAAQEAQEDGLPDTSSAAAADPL
Assay: Triple SILAC pull-down after UNC0638 treatment of 293T cells, DMSO/UNC0638 ratio of protein captured by 3×MBT;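 further: mass spectrometry (Q-Exactive) SILAC quantitation, DMSO/UNC0638 ratio computed after subtracting 3×MBTD355N mutant pull-down background, only proteins with at least twofold 3×MBT over mutant signal considered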
Format: cell-based
Settings: for Relative to UNC0638 UNC Heavy / Relative to UNC0638 UNC Light: SILAC ratio DMSO/UNC0638 of protein pulled down with 3xMBT; for Relative to UNC0638 UNC Heavy: UNC0638 in heavy SILAC media; for Relative to UNC0638 UNC Light: UNC0638 in light SILAC media; for Protein Ratios DMSO/UNC0638: SILAC ratio of protein captured by 3xMBT, 293T cells treated 24 hours with UNC0638 at 2.5 μM or DMSO; for Relative to UNC0638 Average: average of UNC Light and UNC Heavy experiments; for Candidate G9a/GLP target: reduced association with 3xMBT after UNC0638 treatment

Row | Substance | Relative to UNC0638 UNC Heavy [log base 2] | Relative to UNC0638 UNC Light [log base 2] | Protein Ratios DMSO/UNC0638 | Relative to UNC0638 Average [log base 2] | Candidate G9a/GLP target
1 | DNA ligase 1 | 0.83 | 1.06 | 1.9 | 0.95 | ✓
2 | MCM7: protein with methylated lysine identified in 3xMBT pull-down | 0.12 | 0.10 | – | 0.11 | –
3 | MSH6: protein with methylated lysine identified in 3xMBT pull-down | 0.18 | 0.06 | – | 0.12 | –
4 | Protein Wiz | 0.83 | 0.29 | 1.5 | 0.56 | ✓
5 | RBM25: protein with methylated lysine identified in 3xMBT pull-down | 0.25 | 0.29 | – | 0.27 | –
6 | SSRP1: protein with methylated lysine identified in 3xMBT pull-down | 0.00 | 0.26 | – | 0.13 | –
